Source: the nanobody polyreactivity screen of Harvey et al. (2022)

Test: yeast display, Sf9 membrane polyspecificity reagent, FACS + sequencing; frameworks hold sequencing errors
Summary of the method: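 Sorting gates, low and high (top ~1%), were placed on anti-HA fluorescence to track expression and on streptavidin fluorescence to track reagent binding. A clone's polyreactivity label is taken from the gate it came out of. The reagent was 10% biotinylated, detergent-solubilized Sf9 membrane, applied for 1 hour at 4 °C to galactose-induced yeast display cells.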

| Sequence | polyreactivity (PSR sort gate) |
| --- | --- |
| QVQLVESGGGLVQAGGSLRLSCAASGSTFRVYAMGWYRQAPGTERELVATINVSGGSTYYADSVKGRFTISRDNAKNTVYLQMNSLKPEDTAVYYCAKEDGAYGYPFDYWGQGTQVTVSS | low polyreactivity |
| QVQLVESGGGLVQAGGSLRLSCAASGSTFRVYAMGWYRQATGKERELVAAIRWRGVTTYADSVKGRFTISRDNAKNTVYLQMNSLKPEDTAVYYCARDVNYPGSEGDYWGQGTQVTVSS | low polyreactivity |
| QVQLVESGGGLVQAGGSLRLSCAASGSTFRWYAMGWYRQAPGKERELVAAISGSGGSTYYADSVKGRFTISRDNAKKTVYLQMNSLKPEDTAVYYCNKRYFTYLGEHTVGYWGQGTQVTVSS | high polyreactivity |
| QVQLVESGGGLVQAGGSLRLSCAASGSTFRYNAMGWYRQAPGKERELVAAINRGGGTDYADSVKGRFTISRDNAKNTVYLQMNSLKPEDTAVYYCAAAYLRYVSTQYHYDDWGQGTQVTVSS | low polyreactivity |
| QVQLVESGGGLVQAGGSLRLSCAASGSTFRYNAMGWYRQAPGKERELVAAITSSGGRTYYADSVKGRFTISRDNAKKTVYLQRISLKPEDTAVYYCDAYAYYHTGDDYWGQGTQVTVSS | high polyreactivity |
| QVQLVESGGGLVQAGGSLRLSCAASGSTFRYNAMGWYRQAPGKERELVAAITSSGSRTYYADSVKGRFTISRDNAKNTVYLQMNSLKPEDTAVYYCAAYGYYTKVTKYDYWGQGTQVNVSS | high polyreactivity |
| QVQLVESGGGLVQAGGSLRLSCAASGSTFRYNAMGWYRQAPGKERELVAGISYRGGTTYYADSVKGRFTISRDNAKNTVYLQMNSLKPEDTAVYYCAADSRAKRYYWGQGTQVTVSS | high polyreactivity |
| QVQLVESGGGLVQAGGSLRLSCAASGSTFRYNAMGWYRQAPGKERELVATITGSGGSTYYADSVKGRFTISRDNAKNTVYLQMNSLKPEDTAVYYCTARYVYGAYSSLSAHYYWGQGTQVTVSS | high polyreactivity |
| QVQLVESGGGLVQAGGSLRLSCAASGSTFRYNVMGWYRQAPGKERELVAAISSGGSTYYADSVKGRFTISRDNAKNTVYLQMNSLKPEDTAVYYCAAPRYLFFVGLGMDYWGQGTQVTVSS | high polyreactivity |
| QVQLVESGGGLVQAGGSLRLSCAASGSTFRYYAMGWYRQAPGKEREFVATINKSGGSTYYADSVKGRFTISRDNEKNTVYLQMNSLKPEDTAVYYGATRKSGGYRYDYWGQGTQVTVSS | high polyreactivity |
| QVQLVESGGGLVQAGGSLRLSCAASGSTFRYYAMGWYRQAPGKERELVAAISGSGGRTYYADSVKGRFTISRDNAKNTVYLQMNSLKPEYTAVYYCNTRGRSTDYDYWGQGTQVTVSS | high polyreactivity |
| QVQLVESGGGLVQAGGSLRLSCAASGSTFRYYAMGWYRQAPGKERELVAAISGSGGRTYYADSVKGRFTISRDNAKNTVYLQMYSLKPEDTAVYYCAASRYQFYWGQGTQVTVSS | high polyreactivity |
| QVQLVESGGGLVQAGGSLRLSCAASGSTFRYYAMGWYRQAPGKERELVAAISKSGGRTYYADSVKGRFTISRDNAKNTVYLEMNSLKPEDTAVYYCAADCVARYQKGQYDYWGQGTQVTVSS | high polyreactivity |
| QVQLVESGGGLVQAGGSLRLSCAASGSTFRYYAMGWYRQAPGKERELVAAISSAGTTYYADSVKGRFTISRDNAKNTVYLQMNSLNPEETAVYYCAAKYSYYTYAGDGGLFSWSYGYWGQGTQVTVSS | low polyreactivity |
| QVQLVESGGGLVQAGGSLRLSCAASGSTFRYYAMGWYRQAPGKERELVAAITYRATSTYYADSVEGRFTISRDNAKNTVYLQMNSLKPEYTAVYYCAAYSTYSRSDYWGQGTQVTVSS | high polyreactivity |
| QVQLVESGGGLVQAGGSLRLSCAASGSTFRYYAMGWYRQAPGKERELVAANTYRATSTYYADSVKGRFTISRDNAKNTVYLQMNSLKPEDTAVYYCAAYSTYSRYDYWGQGTQVTVSS | high polyreactivity |
| QVQLVESGGGLVQAGGSLRLSCAASGSTFRYYAMGWYRQAPGKERELVAGISSSGGRTYYADSVKGRFTISRDNAKNTVYLQMNSLKPEDTAVYYCAAVRSSWSYYYWGQGTQVTVSS | high polyreactivity |
| QVQLVESGGGLVQAGGSLRLSCAASGSTFRYYAMGWYRQEPGKERELVASITRGASTNYADSVKGRFTISRDNAKNTVYIQMNSLKPEDTAVYYCAADNYWHTFGGTDLRDDYWGQGTQVTVSS | low polyreactivity |
| QVQLVESGGGLVQAGGSLRLSCAASGSTFRYYAMGWYSQAPGKERELVASISSGGSTNYADSVKGRFTISRDNAKNTVYLQMNSLKPEDTAVYYCNADSWTVNRRYYYYRYEYWGQGTQVTVSS | low polyreactivity |
| QVQLVESGGGLVQAGGSLRLSCAASGSTFRYYDMGWYRQAPGKERELVADISSGGSTYYADSVKGRFTISRDNAKNTVYLQMNSLKPEDTAVYYCAAAYLSWLFRYDYWGQGTQVTVSS | high polyreactivity |

| Sequence | polyreactivity (PSR sort gate) |
| --- | --- |
| QVQLVESGGGLVQAGGSLRLSCAASGSTFRYYTMGWYRQAPGKERELVASISRSGSTSYADSVKGRFTISRDNAKNTVYLQMNSLKPEDSAVYYCAGESYFGAYAGYDYWGQGTQVTVSS | low polyreactivity |
| QVQLVESGGGLVQAGGSLRLSCAASGSTFRYYVMGWYRQAPRKERELVAGISYRGGTTYYADSVKGRFSISRDNAKNTVYLQMNSLKPEDTAVYYCAADSTPYVLSGNYDYWGQGPQVTVSS | low polyreactivity |
| QVQLVESGGGLVQAGGSLRLSCAASGSTFSANAMGWYRQAPGKERELVAAITYRGGNTYYADSVKGRFTISRDNAKNTVYLQMNSLKPEDTAVYYCNRDLRVRYRRMKYGYWGQGTQVTVSS | low polyreactivity |
| QVQLVESGGGLVQAGGSLRLSCAASGSTFSANAMGWYRQAPGKERELVASISRGGGSTYYADSVKGRFTISRDTAKNTVYLQMNSLKPDDTAVYYCAAVYYRRISQGDTQTYYQYNYWGQVTQVTVSS | high polyreactivity |
| QVQLVESGGGLVQAGGSLRLSCAASGSTFSANAMGWYRQAPGKERELVASISRRGGSTYYADSVKGRFTISRDYAKNTVYLQMNSLKPEDTAVYYCNKRIARQGSPSEYGRSQIGYYYWGQGTQVTVSS | high polyreactivity |
| QVQLVESGGGLVQAGGSLRLSCAASGSTFSANGMGWYRQAPGKERELVAAISARGGITYYADSVKGRFTISRDNAKNTVYLQMNSVKPEDTAVYYCNQRKYYRSTKYNYWGQGTQVTVSS | high polyreactivity |
| QVQLVESGGGLVQAGGSLRLSCAASGSTFSAYAMGWYRQAPGKERELVASNSYSGSSTYYADSVKGRFTISRDNAKNTVYLQMNSLKPEESAVYYCAAVYVRKGTRYGYWGQGTQVTVSS | high polyreactivity |
| QVQLVESGGGLVQAGGSLRLSCAASGSTFSAYVMGWYRQAPVKERELVAAISSIGGSTYYADSVKGRFTISRDNAKNTVYLQMNSLKPEDTAVYYCAAEPPGSTYEGGYWGQGTQVTVSS | low polyreactivity |
| QVQLVESGGGLVQAGGSLRLSCAASGSTFSDYAMGWYRPEPGKERELDATITSTGDTNYADSVKGRFTMSRDNAKTTVYLQMNSLKPEDTAVYYCAAQHKKYGKRGRWNNFGYWGQGTQVTVSS | low polyreactivity |
| QVQLVESGGGLVQAGGSLRLSCAASGSTFSDYAMGWYRQAPGKERELVAAISGGGTTDYADSVKGRFTISRDNAKNTVYLQMNSLKPEDTAVYYCNKPVEGSFLPYSYLRFDYWGQGTHVTVSS | low polyreactivity |
| QVQLVESGGGLVQAGGSLRLSCAASGSTFSDYAMGWYRQAPGKERELVAGITETGTTTYYADSVKGRFTISRDNAKNTVYLQMNSLKPEDTAVYYCAAYVVTYYYGTGYYSYDYWGQGTQVTVSS | low polyreactivity |
| QVQLVESGGGLVQAGGSLRLSCAASGSTFSENAMGWYRQAPGKERELVAAISWGGGSTYYADSVKGRFTISRDNAKNTVYLQMNSLKPEDTAVYYCIADVFDDYGYFESDYWGQGTQVTVSS | low polyreactivity |
| QVQLVESGGGLVQAGGSLRLSCAASGSTFSFNAMGWYRQAPGKERELVAAISRSGGRTYYADSVKGRFTISRDNAKNTVYLQMNSLKPEDTAVYYCNKVWFQRSVQPVEYVYWGQGTQVTVSS | high polyreactivity |
| QVQLVESGGGLVQAGGSLRLSCAASGSTFSFNAMGWYRQAPGKERELVAAITYSGGDTYYADSVKGRFTISRDNAKNTVYLQMNSLKPEDTAVYYCAAKIPRPYAMDYWGQGTQVTVSS | low polyreactivity |
| QVQLVESGGGLVQAGGSLRLSCAASGSTFSFYAMGVYRQAPGKERELVAAISKSGGRTYYADSVKGRFTISRDNAKYTVYLQMNSLKPEDTAVYYCAARGNGQYVGKYYYWGQGTQVTVSS | high polyreactivity |
| QVQLVESGGGLVQAGGSLRLSCAASGSTFSFYAMGWYRQAPGKERELVAAISRSGGRTYYADSVKGRFTISRDNAKNTVYLQMNSLKPEDTAVYYCAVEVTHYIHYYYWGQGNQVTVSS | high polyreactivity |
| QVQLVESGGGLVQAGGSLRLSCAASGSTFSFYAMGWYRQAPGKERELVAAISRSGGSTFYADSVKGRFTISRDNAKNTVYLQMNSLKPEDTAVYYCAAYGGLQSRYYYWGQGTQVTVSS | high polyreactivity |
| QVQLVESGGGLVQAGGSLRLSCAASGSTFSGNAMGWYRQAPGKERELVAAITSSGGSTYYADSVKGRFTISRDNAKNTVYLQMNSLKPEDTAVYYCAADGQYYYGFDYWGQGTQVTVSS | high polyreactivity |
| QVQLVESGGGLVQAGGSLRLSCAASGSTFSGNARGWDRQAPGKERELVAAISRRGGSTNYADSVKGRFTISRDNAKYTVYLKMNSLKPEDTAVYYCNKGDYRSAYRHIEYGYWGQGTQVTVSS | low polyreactivity |
| QVQLVESGGGLVQAGGSLRLSCAASGSTFSGYAMGWYRLAPGKERELVASISSGGRTTYADSVKGRFTISRDNAKYTVYLQMNSLKPEDTAVSYCANRIRPGYARLYSWGQGTQVTVSS | high polyreactivity |
